# Data taken from patent US10994019B2, “Bicyclic peptide-toxin conjugates specific for MT1-MMP” (BicycleRD Limited, priority 2016, dated 2021).
# Starred links: 1 amine or outer side, 2 acyl side, 3 side chain; linkers in the order of their positions; H or OH if unused. Positions of bridges follow the written chain, without caps; N, C: chain ends. Non-standard residues stand in square brackets, D forms with d. Residues, ends and D or L forms follow the SMILES beside them. *: point of attachment. X1 = COc1cc2cc(c1Cl)N(C)C(=O)C[C@H](OC(=O)[C@H](C)N(C)C(=O)CCSSC(C)(C)CCC(=O)*)[C@]1(C)O[C@H]1[C@H](C)[C@@H]1C[C@@](O)(NC(=O)O1)[C@H](OC)/C=C/C=C(\C)C2; 1Nal = N[C@@H](Cc1cccc2ccccc12)C(=O)O; TBMB = c1c(C[*:1])cc(C[*:3])cc1C[*:2]; Tle = CC(C)(C)[C@H](N)C(=O)O; βAla = NCCC(=O)O; Sar = CNCC(=O)O
# Legend:
# [1] = test system: murine, dog, cynomolgus and human MT1-MMP; assay: Species cross-reactivity of peptide ligands; format: binding
# [2] = test system: MMP-1, MMP-2, MMP-15 and MMP-16; assay: Selectivity for MT1-MMP over other MMPs; format: binding
# [3] = Plasma stability profiling, Method #2 (quantitative LC-MS), human plasma; format: in vitro ADME; conditions: incubation up to 24 hrs in plasma, 4 μM BDC, read-out: t1/2 (hrs) (human plasma) (converted)
# Procedure: (§1) To obtain plasma stability of bicyclic peptides quantitatively, peptide stock solutions (160 μM in DMSO) were mixed with plasma (human, rat or mouse), such that final concentrations were 4 μM, and incubated at 37° C. 40 μL samples were taken periodically up to 24 hrs and frozen at −80° C. Prior to LC-MS analysis, samples were defrosted, and mixed with 3 volumes (here, 120 μL) of 1 part water, 3 parts acetonitrile and 3 parts methanol. The milky suspensions were centrifuged for 40 min at 14000 rpm in a cooled centrifuge, and peptide-containing supernatants were quantitated for doubly/triply charged species and MS/MS fragments thereof using a Waters Xevo TQ-D instrument, while using a plasma extracted standard curve of the same peptides as a reference. The half-life of degradation in plasma was used to assess the comparative stability of the molecules.
# [4] = Plasma stability profiling, Method #2 (quantitative LC-MS), rat plasma; format: in vitro ADME; conditions: incubation up to 24 hrs in plasma, 4 μM BDC, read-out: t1/2 (hrs) (rat plasma) (converted)
# Procedure: as §1
# EBC-1 xenograft tumours = assay: Efficacy in EBC-1 xenograft mice; format: in vivo, Balb/c nude mice
# Procedure: (§2) Efficacy of BT17BDC-27 and BT17BDC-28 in EBC-1 Xenograft Mice.
# (§3) Balb/c nude mice bearing subcutaneous EBC-1 xenograft tumours were treated with BDCs or vehicle. BDCs were dosed 3 times weekly for 2 weeks, dosing initiated when tumours measured approx. 150-200 mm^3. Mice were monitored, and measurements of tumour volume and body weight recorded 3 times a week.
# Both BDCs were tested for their efficacies in in vivo mouse xenograft models, using the human lung squamous cell carcinoma line EBC-1.
# [5] = Body weight during treatment of EBC-1 xenograft mice; format: in vivo, Balb/c nude mice; conditions: 10 mg/kg
# Procedure: FIG. 2: Body weight during treatment of EBC-1 xenograft mice with BT17BDC-27, which is indicative of drug-associated toxicology and overall animal health.
# FIG. 4: Body weight during treatment of EBC-1 xenograft mice with BT17BDC-28, which is indicative of drug-associated toxicology and overall animal health.
# as §2, §3
# [6] = Plasma stability profiling, Method #2 (quantitative LC-MS), mouse plasma; format: in vitro ADME; conditions: incubation up to 24 hrs in plasma, 4 μM BDC, read-out: t1/2 (hrs) (mouse plasma) (converted)
# Procedure: as §1
# [7] = cited from earlier work; for reduction in sensitivity to a reducing agent such as dithiothreitol: in the antibody drug conjugate context; for Relative Stability to DTT (ADC): values relate to antibody drug conjugates containing the disulphide linker
# [8] = Relative stability to DTT of Bicycle Drug Conjugates by quantitative LC-MS; format: physicochemical; conditions: compared to unhindered disulphide BDCs
# Procedure: Both BDC conjugate structures were assessed for several in vitro parameters such as retention of potency to the human MT1-MMP hemopexin domain, stability in mouse, rat and human plasma, and stability to reducing agents such as dithiothreitol.
# [9] = 10 mg/kg, dosed 3 times weekly for 2 weeks
Compound,"cross-reactivity with murine, dog, cynomolgus and human MT1-MMP [1]",half-life at 4 μM [3] [h],half-life at 4 μM [4] [h],body weight [5],half-life at 4 μM [6] [h],reduction in sensitivity to a reducing agent such as dithiothreitol [7] [fold],Relative Stability to DTT (ADC) [7],Relative Stability to DTT (BDC) [8],other results
"C[C@H](N)C(=O)N[C@H]1CSCc2cc3cc(c2)CSC[C@H](NC(=O)[C@@H](C)NC(=O)[C@H](Cc2cccc4ccccc24)NC(=O)[C@H](CCC(=O)O)NC(=O)[C@H](CC(N)=O)NC(=O)[C@@H](C)NC1=O)C(=O)N[C@@H](CCC(=O)O)C(=O)N[C@@H](CC(=O)O)C(=O)N[C@@H](Cc1ccccc1)C(=O)N[C@@H](Cc1ccc(O)cc1)C(=O)N[C@@H](CC(=O)O)C(=O)N[C@@H](C(C)(C)C)C(=O)N[C@H](C(N)=O)CSC3 [17-69-07-N268, A-(17-69-07) D-Ala1 1Nal4 D-Ala5 tBuGly11] (H-AC[dA]NE[1Nal][dA]CEDFYD[Tle]C-NH2; linker 2-8-15 via TBMB)",fully cross reactive,,,,,,,,
-Ci-Y-N-E-F-G-Cii-E-D-F-Y-D-I-Ciii- [17-69-07],,,,,,,,,"selectivity for MT1-MMP (no cross-reaction with MMP-1, MMP-2, MMP-15 and MMP-16) [2]: uniquely selective for MT1-MMP"
"C[C@H](NC(=O)CN(C)C(=O)CN(C)C(=O)CN(C)C(=O)CN(C)C(=O)CN(C)C(=O)CN(C)C(=O)CN(C)C(=O)CN(C)C(=O)CN(C)C(=O)CN(C)C(=O)CCN)C(=O)N[C@H]1CSCc2cc3cc(c2)CSC[C@H](NC(=O)[C@@H](C)NC(=O)[C@H](Cc2cccc4ccccc24)NC(=O)[C@H](CCC(=O)O)NC(=O)[C@H](CC(N)=O)NC(=O)[C@@H](C)NC1=O)C(=O)N[C@@H](CCC(=O)O)C(=O)N[C@@H](CC(=O)O)C(=O)N[C@@H](Cc1ccccc1)C(=O)N[C@@H](Cc1ccc(O)cc1)C(=O)N[C@@H](CC(=O)O)C(=O)N[C@@H](C(C)(C)C)C(=O)N[C@H](C(N)=O)CSC3 [17-69-07-N241, bAla-Sar10-A-(17-69-07) D-Ala1 1Nal4 D-Ala5 tBuGly11] (H-[βAla][Sar][Sar][Sar][Sar][Sar][Sar][Sar][Sar][Sar][Sar]AC[dA]NE[1Nal][dA]CEDFYD[Tle]C-NH2; linker 13-19-26 via TBMB)",fully cross reactive,,,,,,,,
COc1cc2cc(c1Cl)N(C)C(=O)C[C@H](OC(=O)[C@H](C)N(C)C(=O)CCSSC(C)(C)CCC(=O)N[C@@H](C)C(=O)N[C@H]1CSCc3cc4cc(c3)CSC[C@H](NC(=O)[C@@H](C)NC(=O)[C@H](Cc3cccc5ccccc35)NC(=O)[C@H](CCC(=O)O)NC(=O)[C@H](CC(N)=O)NC(=O)[C@@H](C)NC1=O)C(=O)N[C@@H](CCC(=O)O)C(=O)N[C@@H](CC(=O)O)C(=O)N[C@@H](Cc1ccccc1)C(=O)N[C@@H](Cc1ccc(O)cc1)C(=O)N[C@@H](CC(=O)O)C(=O)N[C@@H](C(C)(C)C)C(=O)N[C@H](C(N)=O)CSC4)[C@]1(C)O[C@H]1[C@H](C)[C@@H]1C[C@@](O)(NC(=O)O1)[C@H](OC)/C=C/C=C(\C)C2 [BT17BDC-27] (X1-AC[dA]NE[1Nal][dA]CEDFYD[Tle]C-NH2; linker 2-8-15 via TBMB),,36,9,slight reduction in body weight,23,14,14,32,cleared tumours within (EBC-1 xenograft tumours; [9]): ≤ 14 days; efficacy and tolerability (EBC-1 xenograft tumours; doses equal or lower than 5 mg/kg): appreciable efficacy and tolerability
COc1cc2cc(c1Cl)N(C)C(=O)C[C@H](OC(=O)[C@H](C)N(C)C(=O)CCSSC(C)(C)CCC(=O)NCCC(=O)N(C)CC(=O)N(C)CC(=O)N(C)CC(=O)N(C)CC(=O)N(C)CC(=O)N(C)CC(=O)N(C)CC(=O)N(C)CC(=O)N(C)CC(=O)N(C)CC(=O)N[C@@H](C)C(=O)N[C@H]1CSCc3cc4cc(c3)CSC[C@H](NC(=O)[C@@H](C)NC(=O)[C@H](Cc3cccc5ccccc35)NC(=O)[C@H](CCC(=O)O)NC(=O)[C@H](CC(N)=O)NC(=O)[C@@H](C)NC1=O)C(=O)N[C@@H](CCC(=O)O)C(=O)N[C@@H](CC(=O)O)C(=O)N[C@@H](Cc1ccccc1)C(=O)N[C@@H](Cc1ccc(O)cc1)C(=O)N[C@@H](CC(=O)O)C(=O)N[C@@H](C(C)(C)C)C(=O)N[C@H](C(N)=O)CSC4)[C@]1(C)O[C@H]1[C@H](C)[C@@H]1C[C@@](O)(NC(=O)O1)[C@H](OC)/C=C/C=C(\C)C2 [BT17BDC-28] ({X1-βAla}-[Sar][Sar][Sar][Sar][Sar][Sar][Sar][Sar][Sar][Sar]AC[dA]NE[1Nal][dA]CEDFYD[Tle]C-NH2; linker 12-18-25 via TBMB),,29,13,no weight loss was observed,19,14,14,28,effect on tumour growth (EBC-1 xenograft tumours; [9]): tumour growth stasis but not active regression
